Results taken from patent US8349320 (dated 2013).

B1: mouse HVEM-Fc (Fc fusion)
chain: QPSCRQEEFLVGDECCPMCNPGYHVKQVCSEHTGTVCAPCPPQTYTAHANGLSKCLPCGVCDPDMGLLTWQECSSWKDTVCRCIPGYFCENQDGSHCSTCLQHTTCPPGQRVEKRGTHDQDTVCADCLTGTFSLGGTQEECLPWTNCSAFQQEVRRGTNSTDTTCSSQ
B2: human HVEM-Fc (Fc fusion)
chain: LPSCKEDEYPVGSECCPKCSPGYRVKEACGELTGTVCEPCPPGTYIAHLNGLSKCLQCQMCDPAMGLRASRNCSRTENAVCGCSPGHFCIVQDGDHCAACRAYATSSPGQRVQKGGTESQDTLCQNCPPGTFSPNGTLEECQHQTKCSWLVTKAGAGTSSSHWV
modifications: in the FIG. 3H assay biotinylated with NHS-PEO4-Biotin, 2 biotin molecules per HVEM-Fc (sites not given)

Legend:
[1] = biological target: T1, human BTLA expressed on cells (human, UniProt Q7Z6A9 31-289); assay: FACS binding to transfected 293T cells; top panel
[2] = biological target: T2, mouse BTLA expressed on cells (mouse, UniProt Q7TSA3 30-306); assay: FACS binding to transfected 293T cells; top panel
T2 chain: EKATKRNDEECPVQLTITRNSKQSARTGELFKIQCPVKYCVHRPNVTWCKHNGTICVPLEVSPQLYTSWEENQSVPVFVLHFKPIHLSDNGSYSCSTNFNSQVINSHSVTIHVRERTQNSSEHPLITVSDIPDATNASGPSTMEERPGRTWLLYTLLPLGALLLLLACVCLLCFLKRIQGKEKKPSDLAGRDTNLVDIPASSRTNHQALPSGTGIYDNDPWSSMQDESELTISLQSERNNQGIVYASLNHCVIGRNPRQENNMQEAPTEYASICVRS

[3] = biological target: T1, human BTLA expressed on cells; assay: FACS binding to transfected 293T cells; bottom panel; axis printed mHVEM:Fc, presumably hHVEM:Fc

T1 sequence (Q7Z6A9 31-289): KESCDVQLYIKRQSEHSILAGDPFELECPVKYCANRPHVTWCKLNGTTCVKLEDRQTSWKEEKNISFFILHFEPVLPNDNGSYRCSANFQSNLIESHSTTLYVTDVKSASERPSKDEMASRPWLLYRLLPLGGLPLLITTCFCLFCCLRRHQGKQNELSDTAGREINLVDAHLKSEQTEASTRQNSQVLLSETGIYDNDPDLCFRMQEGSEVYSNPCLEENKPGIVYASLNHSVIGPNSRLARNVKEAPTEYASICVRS

Binder	EC50 [1] [µg/mL]	EC50 [2] [µg/mL]	EC50 [3] [µg/mL]
B1	0.5	0.8	
B2			> 25
